This note sets out measurements from patent publication US20170182124A1, “FGF21 Derivatives and Uses Thereof” (Novo Nordisk A/S, priority 2014, published 2017).

Like-named read-outs stand apart in the source and are kept apart here. Marks after values point to notes of the source that are not given here.

As a reminder, the EC50 is the concentration giving half of the maximal effect.

One data set deals with 3T3-L1 adipocytes (Mus musculus, UniProt P16092+Q99N32). The data set can be described thus: Glucose uptake in 3T3-L1 adipocytes. It is filed as cell-based. Conditions: stimulated 20 hours, 3H-deoxy-glucose. As to the method: The C-terminal modified analogues were tested for their ability to increase glucose uptake in 3T3-L1 mouse adipocytes. The following assay was used for determining the biological activity, or potency, of FGF21 analogues and derivatives of the invention.
Chain of 3T3-L1 adipocytes (Q99N32 whole entry): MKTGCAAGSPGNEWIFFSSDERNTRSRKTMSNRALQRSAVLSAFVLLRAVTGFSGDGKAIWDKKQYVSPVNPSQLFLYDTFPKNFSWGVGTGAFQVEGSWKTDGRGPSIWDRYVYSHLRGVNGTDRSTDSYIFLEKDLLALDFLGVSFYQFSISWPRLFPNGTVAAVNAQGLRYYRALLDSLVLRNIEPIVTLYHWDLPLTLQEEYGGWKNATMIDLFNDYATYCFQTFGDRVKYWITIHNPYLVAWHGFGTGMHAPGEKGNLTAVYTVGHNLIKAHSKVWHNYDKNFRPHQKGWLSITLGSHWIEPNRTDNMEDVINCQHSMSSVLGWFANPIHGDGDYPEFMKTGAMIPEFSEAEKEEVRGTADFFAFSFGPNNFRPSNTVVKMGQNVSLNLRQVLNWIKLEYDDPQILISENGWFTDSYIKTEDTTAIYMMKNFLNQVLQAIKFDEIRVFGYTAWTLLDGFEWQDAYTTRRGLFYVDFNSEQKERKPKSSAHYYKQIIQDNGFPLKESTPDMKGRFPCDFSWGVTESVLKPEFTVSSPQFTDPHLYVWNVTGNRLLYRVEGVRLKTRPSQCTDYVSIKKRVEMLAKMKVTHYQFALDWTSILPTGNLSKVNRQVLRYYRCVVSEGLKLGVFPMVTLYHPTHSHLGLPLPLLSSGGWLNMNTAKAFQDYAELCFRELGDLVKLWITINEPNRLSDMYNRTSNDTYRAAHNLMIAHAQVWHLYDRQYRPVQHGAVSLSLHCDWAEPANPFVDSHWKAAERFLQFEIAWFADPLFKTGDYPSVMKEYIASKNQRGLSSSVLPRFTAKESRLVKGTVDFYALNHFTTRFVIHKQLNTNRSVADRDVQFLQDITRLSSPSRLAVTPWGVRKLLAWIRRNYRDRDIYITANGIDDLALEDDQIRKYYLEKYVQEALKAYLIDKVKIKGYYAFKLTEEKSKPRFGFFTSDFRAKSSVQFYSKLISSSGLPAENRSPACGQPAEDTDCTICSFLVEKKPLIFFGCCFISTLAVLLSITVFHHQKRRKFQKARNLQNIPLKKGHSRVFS
Chain of 3T3-L1 adipocytes (P16092 22-822): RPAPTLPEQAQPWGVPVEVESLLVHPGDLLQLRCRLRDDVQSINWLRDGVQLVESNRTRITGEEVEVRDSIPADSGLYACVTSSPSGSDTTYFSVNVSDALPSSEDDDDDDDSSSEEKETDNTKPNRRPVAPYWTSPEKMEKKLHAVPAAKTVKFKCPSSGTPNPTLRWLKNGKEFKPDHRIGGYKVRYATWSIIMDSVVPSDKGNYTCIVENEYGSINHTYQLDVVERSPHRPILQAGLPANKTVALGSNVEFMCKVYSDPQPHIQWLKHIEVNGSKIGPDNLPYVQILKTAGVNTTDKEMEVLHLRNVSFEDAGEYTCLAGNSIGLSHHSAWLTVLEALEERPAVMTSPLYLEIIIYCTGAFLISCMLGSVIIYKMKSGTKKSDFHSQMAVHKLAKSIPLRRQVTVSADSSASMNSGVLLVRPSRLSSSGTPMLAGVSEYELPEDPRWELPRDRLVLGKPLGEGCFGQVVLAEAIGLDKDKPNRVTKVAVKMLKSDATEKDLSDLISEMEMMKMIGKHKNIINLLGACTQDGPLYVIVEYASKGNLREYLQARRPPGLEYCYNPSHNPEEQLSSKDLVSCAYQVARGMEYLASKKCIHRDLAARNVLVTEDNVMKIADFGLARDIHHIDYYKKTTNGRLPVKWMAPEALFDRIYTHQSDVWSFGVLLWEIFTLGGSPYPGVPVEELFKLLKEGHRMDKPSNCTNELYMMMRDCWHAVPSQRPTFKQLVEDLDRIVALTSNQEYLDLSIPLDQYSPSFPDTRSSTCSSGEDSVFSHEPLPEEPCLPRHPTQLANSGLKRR
The in vitro potency may also be determined in an assay with mouse 3T3-L1 adipocytes by testing the FGF21 analogues and derivatives for their ability to increase glucose uptake into adipocytes. Differentiated 3T3-L1 adipocytes endogenously express FGFR1c and BKL. The 3T3-L1 cells are unresponsive to FGF21 until after differentiated as differentiation lead to expression of the co-receptor BKL. Activation of the FGFR1 receptor/BKL complex increase the expression of glucose transporter 1 (GLUT1) and therefore FGF21 agonists will lead to an increased amount of glucose taken into the adipocytes in a dose responsive manner.
Mouse 3T3-L1 fibroblasts (e.g. available from ATCC, catalogue no. CL-173) were maintained in basal medium (DMEM (4500 mg/I Glucose) with 10% Fetal Bovine Serum (FBS) and 1% Penicillin/Streptomycin). The cells are not allowed to reach confluence and should be passed (transferred to new vials) before reaching approx. 60% of confluency (by visual inspection).
For the glucose uptake assay, cells were 15.000 cells/well in a 96 well plate (BIOCOAT), and when they reached confluency (high density, with a view to have differentiated adipose cells made), the medium was changed from basal medium to basal medium containing Troglitazone, IBMX, Dexamethasone (commercially available from, e.g., Sigma) and human insulin (commercially available from, e.g., Novo Nordisk A/S).
The cells were used 7-9, days after initiation of differentiation. The cells were stimulated with increasing concentrations (0-300 nM) of the FGF21 analogues or derivatives of the invention for 20 hours in basal medium. Before addition of 3H-deoxy-glucose (in what follows: the tracer) the cells were washed in warm (approximately 37° C.) assay buffer (PBS with 1 mM MgCl2 and 2 mM CaCl2), HEPES and 0.1% Human serum albumin) and the cells were incubated with the tracer for 1 hour. This incubation was terminated by washing twice in ice cold assay buffer. The cells were lysed with Triton X-100 and lysates transferred to a 96 wells plate, microscint-40 (commercially available from, e.g., Perkin Elmer) was added and amount of tracer counted in a TOP-counter (e.g. a Packard top-counter from Perkin Elmer). The EC50 and Emax of the FGF21 compound in question were calculated. The results which are shown in tables 4-5 below indicate the EC50 (potency) and Emax (efficacy) of the FGF21 analogues and derivatives, respectively.

A short description of data set [1]: Body weight reduction in lean mice. Conditions: change from baseline day 1 to 7. It is filed as in vivo, lean C57BL mice. As to the method:
In order to determine the in vivo potency of the FGF21 derivatives the effect on body weight was studied in lean C57BL mice after subcutaneous (s.c.) administration. It has previously been shown that the weight loss induced by FGF21 in lean mice is predictive of the effect in obese mice and therefore lean mice are considered a good screening model.
The compounds were administered s.c. 1 mg/kg either once (QD) or twice (BID) daily in 10 mM phosphate, 2% (w/vol) glycerol, 500ppm (=0.05%) polysorbate 80, pH=8.15, (2 ml/kg) for 7 days (n=7-8). The respective vehicle treated groups (control) were treated with 10 mM phosphate, 2% (w/vol) glycerol, 500ppm (=0.05%) polysorbate 80, pH=8.15, (2 ml/kg) s.c. twice daily for 7 days (n=6-8). Body weight was measured before dosing and again after 7 days treatment.

The conditions of data set [2]: mouse, in vivo, iv, 20 mg/kg.
Experimental: (§1) This was done in a pharmacokinetic (PK) study, where the terminal half-life of the analogue in question was determined. By terminal half-life is meant the time it takes to halve a certain plasma concentration in the terminal elimination phase.
(§2) The pharmacokinetic profile of FGF21 analogues was tested in normal lean C57b1 mice, n =2-3 (approximately 30 grams). FGF21 compounds were dosed as a single intravenous dose of 20 mg/kg (approximately 5 ml/kg).
(§3) The plasma levels of the FGF21 compounds were determined using Fibroblast Growth Factor-21 Human ELISA (available from BioVendor, catalogue no. RD191108200R). The PC based software, WnNonLin version 6.3 from Pharsight Corportion, Cary N.C., was used for the pharmacokinetic calculation.
For data set [3] the following is noted: pig, in vivo, iv.
Experimental: (§4) The purpose of this study was to determine the protraction in vivo of the FGF21 derivatives after i.v. administration to mini pigs and mice, i.e. the prolongation of their time in the body and thereby their time of action. This was done in a pharmacokinetic (PK) study, where the terminal half-life of the analogue in question was determined. By terminal half-life is meant the time it takes to halve a certain plasma concentration in the terminal elimination phase.
(§5) Female Gottingen mini pigs were obtained from Ellegaard Gottingen Minipigs (Dalmose, Denmark) approximately 7-14 months of age and weighing approximately 16-35 kg were used in the studies. The mini pigs were housed either individually (pigs with permanent catheters) or in a group and fed restrictedly once or twice daily with SDS mini pig diet (Special Diets Services, Essex, UK).
(§6) After at least 2 weeks of acclimatisation two permanent central venous catheters were implanted in vena cava caudalis or cranialis in each animal. The animals were allowed 1 week recovery after the surgery, and were then used for repeated pharmacokinetic studies with a suitable wash-out period between successive dosing.
(§7) Blood samples (for example 0.8 ml) were collected in EDTA (8 mM) coated tubes and then centrifuged at 4° C. and 1942G for 10 minutes. Blood samples were collected to adequately cover the full plasma concentration-time profile of the API. In example blood samples were collected at t=predose, 0.0833, 0.25, 0.5, 0.75, 1, 1.5, 2, 3, 4, 6, 8, 10, 24, 30, 48, 72, 96, 120, 144, 168, 192, 216, 240, 264 hours after dose.
(§8) Plasma was pipetted into Micronic tubes on dry ice, and kept at −20° C. until analysed for plasma concentration of the respective FGF-1 analogue using ELISA. Individual plasma concentration-time profiles were analyzed by a non-compartmental pharmacokinetic method in Phoenix v. 6.3 (Pharsight Inc., Mountain View, Calif., USA), or other relevant software for PK analysis, and the resulting terminal half-lives (harmonic mean) determined.
A further data set deals with FGF receptor/BKL complex. The data set can be described thus: FGF receptor potency in an Erk phosphorylation assay in HEK293 overexpressing human BKL. In kind it is cell-based. Conditions: HEK293/BKL cells, pERK after 12 minutes. A digest of the protocol:
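pERK after 12 min analogue exposure at 37° C. was quantified by AlphaScreen SureFire in lysates of beta-klotho-transfected HEK293 cells. Assay medium was DMEM with 0.02% Tween20, run both without albumin and with 0.1% final HSA to probe albumin binding. Cells were starved 2 h in basal medium first. Absolute EC50 reported.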

Data set [4] can be described thus: Pharmacokinetic study in mice (i.v.). Particulars: terminal half-life, single intravenous dose of 20 mg/kg, lean C57bl mice.
Experimental: as §1, §2, §3
Data set [5] can be described thus: Pharmacokinetic study in mini pigs (i.v.). Conditions: terminal half-life, female Gottingen mini pigs.
Experimental: as §4, §5, §6, §7, §8
Where [6] appears, read: presence of 0.1% HSA, read-out: EC50 (0.1% HSA).

Chain of FGF receptor/BKL complex (Q86Z14 whole entry, one chain of several): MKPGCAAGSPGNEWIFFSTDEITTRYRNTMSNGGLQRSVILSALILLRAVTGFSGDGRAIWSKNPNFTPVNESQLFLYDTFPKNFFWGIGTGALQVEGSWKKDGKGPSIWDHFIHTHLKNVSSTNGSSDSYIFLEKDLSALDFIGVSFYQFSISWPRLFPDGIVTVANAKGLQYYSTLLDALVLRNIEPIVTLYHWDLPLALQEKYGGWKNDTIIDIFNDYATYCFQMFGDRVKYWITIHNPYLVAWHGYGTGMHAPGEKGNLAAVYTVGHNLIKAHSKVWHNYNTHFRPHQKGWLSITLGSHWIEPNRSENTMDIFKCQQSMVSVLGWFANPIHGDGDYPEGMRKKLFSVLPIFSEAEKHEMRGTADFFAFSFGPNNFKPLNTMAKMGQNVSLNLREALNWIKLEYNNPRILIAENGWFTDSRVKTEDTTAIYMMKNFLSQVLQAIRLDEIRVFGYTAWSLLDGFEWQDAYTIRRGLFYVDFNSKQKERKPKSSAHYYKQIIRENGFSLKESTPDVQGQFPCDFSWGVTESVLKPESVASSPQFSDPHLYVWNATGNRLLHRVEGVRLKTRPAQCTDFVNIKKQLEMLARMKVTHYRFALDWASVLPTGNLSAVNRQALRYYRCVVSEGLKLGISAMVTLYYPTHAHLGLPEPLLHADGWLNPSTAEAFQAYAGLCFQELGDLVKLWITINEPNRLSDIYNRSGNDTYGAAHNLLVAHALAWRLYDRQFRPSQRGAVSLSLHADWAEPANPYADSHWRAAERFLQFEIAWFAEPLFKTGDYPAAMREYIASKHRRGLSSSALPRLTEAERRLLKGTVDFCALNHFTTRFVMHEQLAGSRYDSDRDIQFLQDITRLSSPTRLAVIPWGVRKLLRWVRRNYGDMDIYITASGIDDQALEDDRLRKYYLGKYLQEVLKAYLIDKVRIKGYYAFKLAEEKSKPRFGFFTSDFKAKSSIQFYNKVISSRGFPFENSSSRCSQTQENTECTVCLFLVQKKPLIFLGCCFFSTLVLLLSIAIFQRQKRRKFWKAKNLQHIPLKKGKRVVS

B1: MetFGF21 (protein)
chain: MHPIPDSSPLLQFGGQVRQRYLYTDDAQQTEAHLEIREDGTVGGAADQSPESLLQLKALKPGVIQILGVKTSRFLCQRPDGALYGSLHFDPEACSFRELLLEDGYNVYQSEAHGLPLHLPGNKSPHRDPAPRGPARFLPLPGLPPALPEPPGILAPQPPDVGSSDPLSMVGPSQGRSPSYAS
B1: the “Glucose uptake Emax” value with 3T3-L1 adipocytes worked out at 100%. In addition, the “Mean Δ body weight (%)” value in data set [1] (s.c. 1 mg/kg BID for 7 days) is −1.88** %. The molecule also showed a Half-life mice in data set [2] of 1 h. Further, the Half-life mini pigs in data set [3] worked out at 2 h.

B2: S{Beta-180}-[2-[2-[[2-[2-[2-[[2-[2-[2-[[(4S)-4-carboxy-4-(13-carboxytridecanoyl-amino)butanoyl]amino]ethoxy]ethoxy]acetyl]amino]ethoxy]ethoxy]acetyl]amino]-ethylamino]-2-oxoethyl]-Ala[Gln121,Leu168,Cy … (protein)
chain: HPIPDSSPLLQFGGQVRQRYLYTDDAQQTEAHLEIREDGTVGGAADQSPESLLQLKALKPGVIQILGVKTSRFLCQRPDGALYGSLHFDPEACSFRELLLEDGYNVYQSEAHGLPLHLPGQKSPHRDPAPRGPARFLPLPGLPPALPEPPGILAPQPPDVGSSDPLSLVGPSQGRSPSYCS
For B2, the concentration giving a half-maximal response (EC50) at FGF receptor/BKL complex (absence of HSA, read-out: EC50) was determined as 6 nM; on FGF receptor/BKL complex (setting [6]), 6 nM; in the data set with 3T3-L1 adipocytes, 6.7 nM. The “Glucose uptake Emax” value with 3T3-L1 adipocytes is recorded as 106%. Also, the “Mean Δ body weight (%)” value is −3.09* % in data set [1] (s.c. 1 mg/kg BID for 7 days) and 1.85% in data set [1] (s.c. 1 mg/kg QD for 7 days). The molecule also showed a Half-life mice in data set [4] of 1 h. Besides, the Half-life mini pigs in data set [5] was found to be 3 h.

B3: S{Beta-181}-[2-[2-[[2-[2-[2-[[2-[2-[2-[[(4S)-4-carboxy-4-(13-carboxytridecanoyl-amino)butanoyl]amino]ethoxy]ethoxy]acetyl]amino]ethoxy]ethoxy]acetyl]amino]-ethylamino]-2-oxoethyl]-Ala[Gln121,Leu168,Cy … (protein)
chain: HPIPDSSPLLQFGGQVRQRYLYTDDAQQTEAHLEIREDGTVGGAADQSPESLLQLKALKPGVIQILGVKTSRFLCQRPDGALYGSLHFDPEACSFRELLLEDGYNVYQSEAHGLPLHLPGQKSPHRDPAPRGPARFLPLPGLPPALPEPPGILAPQPPDVGSSDPLSLVGPSQGRSPSYAC
For the molecule B3, the EC50 at FGF receptor/BKL complex (absence of HSA, read-out: EC50) was 58 nM; at FGF receptor/BKL complex (setting [6]), 41 nM; with 3T3-L1 adipocytes, 7.2 nM. The “Glucose uptake Emax” value with 3T3-L1 adipocytes is 55%. Further, the “Mean Δ body weight (%)” value in data set [1] (s.c. 1 mg/kg BID for 7 days) is −0.94%. In data set [4], this molecule displayed a Half-life mice of 3 h. This molecule yielded a Half-life mini pigs in data set [5] of 2 h.

B4: S{Beta-180}-[2-[2-[[2-[2-[2-[[2-[2-[2-[[(4S)-4-carboxy-4-(17-carboxyheptadecanoyl-amino)butanoyl]amino]ethoxy]ethoxy]acetyl]amino]ethoxy]ethoxy]acetyl]amino]-ethylamino]-2-oxoethyl]-Ala[Gln121,Leu168, … (protein)
chain: HPIPDSSPLLQFGGQVRQRYLYTDDAQQTEAHLEIREDGTVGGAADQSPESLLQLKALKPGVIQILGVKTSRFLCQRPDGALYGSLHFDPEACSFRELLLEDGYNVYQSEAHGLPLHLPGQKSPHRDPAPRGPARFLPLPGLPPALPEPPGILAPQPPDVGSSDPLSLVGPSQGRSPSYCS
For the molecule B4, the EC50 came out at 5 nM on FGF receptor/BKL complex (absence of HSA, read-out: EC50); 48 nM on FGF receptor/BKL complex (setting [6]); 32 nM with 3T3-L1 adipocytes. Besides, in the data set with 3T3-L1 adipocytes, the “Glucose uptake Emax” value was 109%. Moreover, in data set [1] (s.c. 1 mg/kg QD for 7 days), the “Mean Δ body weight (%)” value was −10.59*** %. The Half-life mice in data set [4] was 12 h. Moreover, in data set [5], the Half-life mini pigs was found to be 70 h.

B5: S{Beta-181}-[2-[2-[[2-[2-[2-[[2-[2-[2-[[(4S)-4-carboxy-4-(17-carboxyheptadecanoyl-amino)butanoyl]amino]ethoxy]ethoxy]acetyl]amino]ethoxy]ethoxy]acetyl]amino]-ethylamino]-2-oxoethyl]-Ala[Gln121,Leu168, … (protein)
chain: HPIPDSSPLLQFGGQVRQRYLYTDDAQQTEAHLEIREDGTVGGAADQSPESLLQLKALKPGVIQILGVKTSRFLCQRPDGALYGSLHFDPEACSFRELLLEDGYNVYQSEAHGLPLHLPGQKSPHRDPAPRGPARFLPLPGLPPALPEPPGILAPQPPDVGSSDPLSLVGPSQGRSPSYAC
For the molecule B5, the half-maximal effective concentration (EC50) at FGF receptor/BKL complex (absence of HSA, read-out: EC50) was 42 nM; at FGF receptor/BKL complex (setting [6]), 170 nM; with 3T3-L1 adipocytes it was 56 nM. Besides, the “Glucose uptake Emax” value with 3T3-L1 adipocytes came to 73%. This molecule also came in with a Half-life mice in data set [4] of 14 h. In data set [5], this molecule gave a Half-life mini pigs of 85 h.

B6: S{Beta-181}-[2-[2-[[2-[2-[2-[[2-[2-[2-[[(4S)-4-carboxy-4-(15-carboxypentadecanoyl-amino)butanoyl]amino]ethoxy]ethoxy]acetyl]amino]ethoxy]ethoxy]acetyl]amino]-ethylamino]-2-oxoethyl]-Ala[Gln121,Leu168, … (protein)
chain: HPIPDSSPLLQFGGQVRQRYLYTDDAQQTEAHLEIREDGTVGGAADQSPESLLQLKALKPGVIQILGVKTSRFLCQRPDGALYGSLHFDPEACSFRELLLEDGYNVYQSEAHGLPLHLPGQKSPHRDPAPRGPARFLPLPGLPPALPEPPGILAPQPPDVGSSDPLSLVGPSQGRSPSYAC
With B6, the 50% effective concentration (EC50) at FGF receptor/BKL complex (absence of HSA, read-out: EC50) amounted to 55 nM; on FGF receptor/BKL complex (setting [6]) it was 72 nM; with 3T3-L1 adipocytes, 31 nM. Besides, the “Glucose uptake Emax” value with 3T3-L1 adipocytes stood at 61%. In addition, the “Mean Δ body weight (%)” value in data set [1] (s.c. 1 mg/kg QD for 7 days) turned out to be 0.18%. This molecule also displayed a Half-life mice in data set [4] of 4 h. The molecule also came in with a Half-life mini pigs in data set [5] of 25 h.

B7: S{Beta-180}-[2-[2-[[2-[2-[2-[[2-[2-[2-[[(4S)-4-carboxy-4-(15-carboxypentadecanoyl-amino)butanoyl]amino]ethoxy]ethoxy]acetyl]amino]ethoxy]ethoxy]acetyl]amino]-ethylamino]-2-oxoethyl]-Ala[Gln121,Leu168, … (protein)
chain: HPIPDSSPLLQFGGQVRQRYLYTDDAQQTEAHLEIREDGTVGGAADQSPESLLQLKALKPGVIQILGVKTSRFLCQRPDGALYGSLHFDPEACSFRELLLEDGYNVYQSEAHGLPLHLPGQKSPHRDPAPRGPARFLPLPGLPPALPEPPGILAPQPPDVGSSDPLSLVGPSQGRSPSYCS
On to B7, for which the EC50 on FGF receptor/BKL complex (absence of HSA, read-out: EC50) was found to be 4 nM; at FGF receptor/BKL complex (setting [6]), 6 nM; with 3T3-L1 adipocytes, 9.1 nM. Besides, in the data set with 3T3-L1 adipocytes, the “Glucose uptake Emax” value worked out at 98%. In data set [1] (s.c. 1 mg/kg QD for 7 days), the “Mean Δ body weight (%)” value is −4.48*** %. The molecule further came in with a Half-life mice in data set [4] of 3 h. Moreover, the Half-life mini pigs in data set [5] was determined as 23 h.
